Test results published in US20240408202A1 (HEALTH RESEARCH, published 2024).

B1: FR-Bh, human FRα targeted BiTE (hCD3e scFv UCHT1 x hFRα scFv MOv19) (bispecific antibody)
chain: GMDIQMTQTTSSLSASLGDRVTISCRASQDIRNYLNWYQQKPDGTVKLLIYYTSRLHSGVPSKFSGSGSGTDYSLTISNLEQEDIATYFCQQGNTLPWTFAGGTKLEIKGGGGSGGGGSGGGGSGGGGSEVQLQQSGPELVKPGASMKISCKASGYSFTGYTMNWVKQSHGKNLEWMGLINPYKGVSTYNQKFKDKATLTVDKSSSTAYMELLSLTSEDSAVYYCARSGYYGDSDWYFDVWGQGTTLTVFSGEAAAKEAAAKEAAAKDIELTQSPASLAVSLGQRAIISCKASQSVSFAGTSLMHWYHQKPGQQPKLLIYRASNLEAGVPTRFSGSGSKTDFTLNIHPVEEEDAATYYCQQSREYPYTFGGGTKLEIKGSTSGSGKSSEGKGQVQLQQSGAELVKPGASVKISCKASGYSFTGYFMNWVKQSHGKSLEWIGRIHPYDGDTFYNQNFKDKATLTVDKSSNTAHMELLSLTSEDFAVYYCTRYDGSRAMDYWGQGTTVTVSSGSGHHHHHH
notes: also called FRα-specific BiTE
B2: FR-B, mouse FRα targeted BiTE (mCD3e scFv 145-2C11 x hFRα scFv MOv19), chimeric BiTE (bispecific antibody)
chain: GEVQLVESGGGLVQPGKSLKLSCEASGFTFSGYGMHWVRQAPGRGLESVAYITSSSINIKYADAVKGRFTVSRDNAKNLLFLQMNILKSEDTAMYYCARFDWDKNYWGQGTMVTVSSGGGGSGGGGSGGGGSDIQMTQSPSSLPASLGDRVTINCQASQDISNYLNWYQQKPGKAPKLLIYYTNKLADGVPSRFSGSGSGRDSSFTISSLESEDIGSYYCQQYYNYPWTFGPGTKLEIKGEAAAKEAAAKEAAAKDIELTQSPASLAVSLGQRAIISCKASQSVSFAGTSLMHWYHQKPGQQPKLLIYRASNLEAGVPTRFSGSGSKTDFTLNIHPVEEEDAATYYCQQSREYPYTFGGGTKLEIKGSTSGSGKSSEGKGQVQLQQSGAELVKPGASVKISCKASGYSFTGYFMNWVKQSHGKSLEWIGRIHPYDGDTFYNQNFKDKATLTVDKSSNTAHMELLSLTSEDFAVYYCTRYDGSRAMDYWGQGTTVTVSSGSGHHHHHH
notes: also called CONT-ENG; Cont-ENG

Key:
mouse CD3ε [1] = target: T1, mouse CD3ε (mouse, UniProt P22646 22-189); experiment: flow cytometry on mouse CD8+ T cells, anti-His tag detection; staining control
T1 construct: whole, on cells; The assay stained mouse T cells; also called mCD3e
Description: (§1) The DNA sequence corresponding to the G(EAAAK)3 (SEQ ID NO:9) linker ([…] (SEQ ID NO:8), followed by Mov19 scFv, 6× His Tag, Furin cleavage peptide, SGSG linker+P2A translational skipping sequence, and monomeric enhanced GFP (eGFP) reporter (to monitor transduction efficiency) was PCR amplified from an existing plasmid to generate overlapping DNA fragments amenable to assembly using NEBuilder (FIG. 7A). FR—B and FR-Bh sequences along with GFP reporter genes were inserted into the previously described retroviral vector¹ using NotI and PacI restriction sites, with DNA fragments assembled using NEBuilder HIFI DNA assembly (New England Biolabs). Plasmid sequences were confirmed by Sanger Sequencing, and retroviruses used to transduce human or mouse cells produced in PG13 or PLAT-E retroviral packaging cells lines, respectively. For murine studies, control T cells were either transduced with a retrovirus expressing a codon-optimized Luciferase (Luc2)-P2A-GFP gene and produced in PLAT-E cells or were Mock transduced. […] In all cases, cell culture supernatant from high-titer retrovirus producing clones was collected and used for viral transduction. For initial testing of BiTEs for antigen-specific binding, 293T cells were retrovirally transduced, followed by collection of 293T cell culture supernatants. […]

[2] = target: T2, human Folate Receptor alpha (FRα) (human, UniProt P15328 25-234); experiment: flow cytometry, BiTE supernatant on FRα+ cancer cells, anti-His tag detection
T2 construct: whole, on cells; also called hFRα; hFRa
Description: as §1

human CD3ε [3] = target: T3, human CD3ε (human, UniProt P07766 23-207); experiment: flow cytometry, BiTE supernatant on human T cells, anti-His tag detection
T3 construct: whole, on cells; The assay stained human T cells; also called hCD3e; CD3e
Description: as §1

mouse CD3ε [4] = target: T1, mouse CD3ε; experiment: flow cytometry, BiTE supernatant on mouse T cells, anti-His tag detection
Description: as §1

human CD3ε [5] = target: T3, human CD3ε; experiment: flow cytometry on human T cells, anti-His tag detection
Description: as §1

[6] = target: T2, human Folate Receptor alpha (FRα); experiment: flow cytometry, BiTE supernatant on IE9-mp1-hFRa cells, anti-His tag detection
Description: as §1

T1 sequence (P22646 22-189): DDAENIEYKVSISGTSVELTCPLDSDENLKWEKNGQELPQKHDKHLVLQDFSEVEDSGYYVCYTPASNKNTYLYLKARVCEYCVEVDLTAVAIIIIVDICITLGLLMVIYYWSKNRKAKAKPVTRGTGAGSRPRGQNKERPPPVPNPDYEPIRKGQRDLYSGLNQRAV
T3 sequence (P07766 23-207): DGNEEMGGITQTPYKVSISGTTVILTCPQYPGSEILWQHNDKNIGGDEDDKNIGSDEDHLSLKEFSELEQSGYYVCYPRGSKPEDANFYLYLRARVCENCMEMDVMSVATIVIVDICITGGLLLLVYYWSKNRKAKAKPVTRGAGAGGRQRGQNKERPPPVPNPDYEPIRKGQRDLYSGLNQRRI
T2 sequence (P15328 25-234): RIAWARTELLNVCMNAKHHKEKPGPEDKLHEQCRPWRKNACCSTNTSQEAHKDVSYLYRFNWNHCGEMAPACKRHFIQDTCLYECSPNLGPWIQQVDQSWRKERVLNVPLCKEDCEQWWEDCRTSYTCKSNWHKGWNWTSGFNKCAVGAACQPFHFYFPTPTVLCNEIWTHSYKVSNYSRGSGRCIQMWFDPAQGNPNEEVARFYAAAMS

Binder | binding result (mouse CD3ε [1]) | binding result [2] | binding result (human CD3ε [3]) | binding result (mouse CD3ε [4]) | binding result (human CD3ε [5]) | binding result [6]
B1 | no binding | binds | binds | – | – | –
B2 | – | – | – | binds | no binding | binds
